Article PMC3877758 (2013)
Values belong to the molecule of their own block, whether it stands above or below them.

Experiments:
[1] = target: eIF5 (Saccharomyces cerevisiae) (UniProt P38431); details: cited from earlier work
[2] = target: eIF2 (yeast (Saccharomyces cerevisiae)) (UniProt P20459)
[3] = target: eIF2 (yeast (Saccharomyces cerevisiae)) (UniProt P20459); test: pull-down; GDF assay (competition): 1 µg eIF2 or eIF2αP and 1 µg GST-eIF5 bound to glutathione sepharose beads 2 h at 4°C, washed, then challenged 2 h at 4°C with increasing concentrations of Flag-eIF2B complexes, subunits or eIF5-Flag; 30 mM HEPES, 100 mM KCl, 100 µM GDP, 5 mM DTT, 1 mM NaF, 2.5 mM MgCl2, 0.05% Triton X-100; bound eIF2 by immunoblot; fit y = 1 − [x/(x + IC50)]
[4] = target: eIF2 (yeast (Saccharomyces cerevisiae)) (UniProt P20459); test: other; displacement of eIF2 from GST-eIF5 (GDF assay); details: complex; chains chain;chain;chain;chain
Rab9 = Rab9 (UniProt P51151); details: cited from earlier work
Sequence of Rab9 (P51151 2-201): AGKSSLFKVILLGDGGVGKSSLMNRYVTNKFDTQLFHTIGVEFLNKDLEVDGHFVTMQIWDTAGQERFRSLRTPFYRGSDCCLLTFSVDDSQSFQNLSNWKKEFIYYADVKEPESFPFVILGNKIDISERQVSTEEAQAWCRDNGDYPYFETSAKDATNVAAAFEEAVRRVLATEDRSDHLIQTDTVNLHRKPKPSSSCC

[5] = target: eIF2 (yeast (Saccharomyces cerevisiae)) (UniProt P20459); test: pull-down; GDF assay (competition): 1 µg eIF2 or eIF2αP and 1 µg GST-eIF5 bound to glutathione sepharose beads 2 h at 4°C, washed, then challenged 2 h at 4°C with increasing concentrations of Flag-eIF2B complexes, subunits or eIF5-Flag; 30 mM HEPES, 100 mM KCl, 100 µM GDP, 5 mM DTT, 1 mM NaF, 2.5 mM MgCl2, 0.05% Triton X-100; bound eIF2 by immunoblot; fit y = 1 − [x/(x + IC50)]; remark: listed apart in the source
eIF2 = target: T1, eIF2 (yeast (Saccharomyces cerevisiae), UniProt P20459 1-304; P09064 1-285; P32481 1-527); test: displacement of eIF2 from GST-eIF5 (GDF assay)
T1 chain 1: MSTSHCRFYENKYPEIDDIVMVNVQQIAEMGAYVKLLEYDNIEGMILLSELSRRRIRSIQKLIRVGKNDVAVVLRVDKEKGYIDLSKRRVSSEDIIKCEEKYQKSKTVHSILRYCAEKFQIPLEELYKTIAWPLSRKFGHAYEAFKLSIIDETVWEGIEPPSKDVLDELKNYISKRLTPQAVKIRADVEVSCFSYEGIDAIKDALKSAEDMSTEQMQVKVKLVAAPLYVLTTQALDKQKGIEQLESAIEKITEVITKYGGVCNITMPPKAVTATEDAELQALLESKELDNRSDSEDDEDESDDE
T1 chain 2: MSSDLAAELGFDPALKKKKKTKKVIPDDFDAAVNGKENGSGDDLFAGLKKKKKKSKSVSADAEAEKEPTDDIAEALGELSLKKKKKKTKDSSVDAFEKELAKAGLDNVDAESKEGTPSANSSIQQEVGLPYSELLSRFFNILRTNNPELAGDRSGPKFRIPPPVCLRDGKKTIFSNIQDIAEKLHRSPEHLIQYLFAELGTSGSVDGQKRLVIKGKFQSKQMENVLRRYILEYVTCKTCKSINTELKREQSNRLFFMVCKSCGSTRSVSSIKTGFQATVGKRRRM
T1 chain 3: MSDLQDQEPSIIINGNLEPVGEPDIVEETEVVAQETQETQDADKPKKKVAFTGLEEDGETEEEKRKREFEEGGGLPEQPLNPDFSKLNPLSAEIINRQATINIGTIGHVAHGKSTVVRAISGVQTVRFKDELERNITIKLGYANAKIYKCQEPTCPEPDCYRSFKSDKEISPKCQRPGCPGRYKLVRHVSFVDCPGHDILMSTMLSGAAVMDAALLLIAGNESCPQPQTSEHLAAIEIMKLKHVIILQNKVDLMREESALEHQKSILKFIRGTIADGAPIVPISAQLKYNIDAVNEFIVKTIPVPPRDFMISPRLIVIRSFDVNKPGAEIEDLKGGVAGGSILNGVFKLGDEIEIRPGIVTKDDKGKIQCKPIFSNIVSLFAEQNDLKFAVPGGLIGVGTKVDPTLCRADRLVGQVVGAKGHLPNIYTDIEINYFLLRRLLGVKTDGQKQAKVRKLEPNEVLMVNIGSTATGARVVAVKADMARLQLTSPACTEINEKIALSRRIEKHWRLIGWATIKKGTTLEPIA

Sequence of eIF5 (Saccharomyces cerevisiae) (P38431 whole entry): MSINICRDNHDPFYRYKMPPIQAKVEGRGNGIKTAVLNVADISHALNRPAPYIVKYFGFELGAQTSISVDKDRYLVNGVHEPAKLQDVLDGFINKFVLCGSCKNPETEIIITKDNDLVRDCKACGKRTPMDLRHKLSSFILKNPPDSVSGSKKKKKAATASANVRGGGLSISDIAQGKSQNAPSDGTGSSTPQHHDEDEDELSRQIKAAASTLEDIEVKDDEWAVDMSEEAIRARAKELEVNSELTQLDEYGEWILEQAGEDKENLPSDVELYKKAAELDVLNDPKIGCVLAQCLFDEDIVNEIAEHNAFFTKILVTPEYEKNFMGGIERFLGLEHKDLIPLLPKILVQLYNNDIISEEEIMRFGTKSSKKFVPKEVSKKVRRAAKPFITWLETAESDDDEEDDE

Molecule: eIF2 (from UniProt P20459)
Kd [1]: 23 nM

K1/2 of mutant eIF2B for [3H]GDP release from eIF2 prebound to eIF5 (coupled GDI–GDF–GEF assay; pair displaced: eIF2 and eIF5) [2]: 134 nM
Molecule: eIF2B-γG12V (mutant eIF2B complex) (from UniProt P14741 1-305; P32502 1-381; P09032 1-578; P12754 1-651; P32501 1-712)

IC50 [3]: 244 nM
Molecule: Flag-tagged eIF5 (eIF5-Flag) (from UniProt P38431 1-405) (natural protein)

IC50 [4]: 25.7 nM
Molecule: four-subunit eIF2B complex lacking the α subunit (eIF2Bβδγɛ), P32502 1-381; P12754 1-651; P09032 1-578; P32501 1-712

K1/2 of mutant eIF2B for [3H]GDP release from eIF2 prebound to eIF5 (coupled GDI–GDF–GEF assay; pair displaced: eIF2 and eIF5) [2]: 134 nM
Molecule: eIF2B-γL480Q (mutant eIF2B complex) (from UniProt P14741 1-305; P32502 1-381; P09032 1-578; P12754 1-651; P32501 1-712)

Molecule: GDIα (from UniProt P21856)
Kd (Rab9): < 23 nM

IC50 [5]: 215 nM
B1: eIF2Bɛ subunit alone (natural protein)
chain: MAGKKGQKKSGLGNHGKNSDMDVEDRLQAVVLTDSYETRFMPLTAVKPRCLLPLANVPLIEYTLEFLAKAGVHEVFLICSSHANQINDYIENSKWNLPWSPFKITTIMSPEARCTGDVMRDLDNRGIITGDFILVSGDVLTNIDFSKMLEFHKKMHLQDKDHISTMCLSKASTYPKTRTIEPAAFVLDKSTSRCIYYQDLPLPSSREKTSIQIDPELLDNVDEFVIRNDLIDCRIDICTSHVPLIFQENFDYQSLRTDFVKGVISSDILGKHIYAYLTDEYAVRVESWQTYDTISQDFLGRWCYPLVLDSNIQDDQTYSYESRHIYKEKDVVLAQSCKIGKCTAIGSGTKIGEGTKIENSVIGRNCQIGENIRIKNSFIWDDCIIGNNSIIDHSLIASNATLGSNVRLNDGCIIGFNVKIDDNMDLDRNTKISASPLKNAGSRMYDNESNEQFDQDLDDQTLAVSIVGDKGVGYIYESEVSDDEDSSTEACKEINTLSNQLDELYLSDDSISSATKKTKKRRTMSVNSIYTDREEIDSEFEDEDFEKEGIATVERAMENNHDLDTALLELNTLRMSMNVTYHEVRIATITALLRRVYHFIATQTLGPKDAVVKVFNQWGLLFKRQAFDEEEYIDLMNIIMEKIVEQSFDKPDLILFSALVSLYDNDIIEEDVIYKWWDNVSTDPRYDEVKKLTVKWVEWLQNADEESSSEEE

IC50 (eIF2): 20 nM
B2: eIF2Bγɛ subcomplex (catalytic subcomplex of eIF2B) (complex)
chain 1: MSIQAFVFCGKGSNLAPFTQPDFPFQTQNKDSTAATSGDKLNELVNSALDSTVINEFMQHSTRLPKALLPIGNRPMIEYVLDWCDQADFKEISVVAPVDEIELIESGLTSFLSLRKQQFELIYKALSNSNHSHHLQDPKKINFIPSKANSTGESLQKELLPRINGDFVILPCDFVTDIPPQVLVDQFRNRDDNNLAMTIYYKNSLDSSIDKKQQQKQKQQQFFTVYSENEDSERQPILLDVYSQRDVTKTKYLQIRSHLLWNYPNLTVSTKLLNSFIYFCSFELCQLLKLGPQSMSRQASFKDPFTGNQQQQNPPTTDDDEDRNHDDDDDYKPSATSIQPTYFKKKNDLILDPINCNKSLSKVFRDLSRRSWQHSKPREPIGIFILPNETLFIRANNLNAYMDANRFVLKIKSQTMFTKNIQIQSAAIGADAIVDPKCQISAHSNVKMSVLGTQANIGSRCRVAGSLLFPGVHLGDEVILENCIIGPMAKIGSKCKLSNCYIEGHYVVEPKNNFKGETLANVYLDEDEEDELIYDDSVIAGESEIAEETDSDDRSDEDSDDSEYTDEYEYEDDGLFER
chain 2: B1 chain

IC50 (eIF2): 318 nM
B3: eIF2Bγ subunit alone (natural protein)
chain: B2 chain 1
